{
  "source": "paper PMC11592359",
  "key": {"[1]": {"molecular_target": "LZ-mDio3^cat: leucine zipper of A. thaliana Hy5 (residues 112-150) fused N-terminally to mouse Dio3 78-304 Sec170Cys (A. thaliana | Mus musculus)", "assay": "SEC; size exclusion chromatography of the purified recombinant protein (final purification step); 20 mM Tris/HCl pH 7.5/7.8, 200 mM NaCl, 1 mM TCEP; compared with molecular weight standards"}, "[2]": {"molecular_target": "LZ-mDio3^cat: leucine zipper of A. thaliana Hy5 (residues 112-150) fused N-terminally to mouse Dio3 78-304 Sec170Cys (A. thaliana | Mus musculus)", "assay": "native gel or EMSA; Blue Native PAGE, 5% stacking and 12.5% resolving gel, 4 °C; samples from the monomer and the dimer SEC peaks; catalase, BSA and chicken egg albumin as size markers"}, "[3]": {"molecular_target": "mouse iodothyronine deiodinase 2 catalytic domain, residues 71-262 (Sec130Cys) (Mus musculus) (UniProt Q9Z1Y9)", "assay": "SEC; size exclusion chromatography of the purified recombinant protein (final purification step); 20 mM Tris/HCl pH 7.5/7.8, 200 mM NaCl, 1 mM TCEP; compared with molecular weight standards"}, "[4]": {"molecular_target": "mouse iodothyronine deiodinase 2 catalytic domain, residues 71-262 (Sec130Cys) (Mus musculus) (UniProt Q9Z1Y9)", "assay": "SEC-MALS; SEC with multi angle light scattering of the two species of Dio2-71-262 (Supplementary Figure S3A)"}, "[5]": {"molecular_target": "mouse iodothyronine deiodinase 2 catalytic domain, residues 71-262 (Sec130Cys) (Mus musculus) (UniProt Q9Z1Y9)", "assay": "native gel or EMSA; Blue Native PAGE, 5% stacking and 12.5% resolving gel, 4 °C; samples from the monomer and the dimer SEC peaks; catalase, BSA and chicken egg albumin as size markers"}, "[6]": {"molecular_target": "mouse iodothyronine deiodinase 2, residues 49-262 (Mus musculus) (UniProt Q9Z1Y9)", "assay": "not stated; size analysis of the recombinantly produced construct (Supplementary Figure S3C)"}},
  "data": [
    {"substance": "LZ-mDio3^cat: leucine zipper of A. thaliana Hy5 (residues 112-150) fused N-terminally to mouse Dio3 78-304 Sec170Cys (from UniProt O24646 112-150; Q91ZI8 78-304)", "values": [
      {"measurement": "stoichiometry N", "setting": "[1]", "value": 2},
      {"measurement": "stoichiometry N", "setting": "[2]", "value": 2}
    ]},
    {"substance": "mouse iodothyronine deiodinase 2 catalytic domain, residues 71-262 (Sec130Cys) (from UniProt Q9Z1Y9 71-262) (domain or fragment)", "values": [
      {"measurement": "stoichiometry N", "setting": "[3]", "value": 2},
      {"measurement": "stoichiometry N", "setting": "[4]", "value": 2},
      {"measurement": "stoichiometry N", "setting": "[5]", "value": 2}
    ]},
    {"substance": "mouse iodothyronine deiodinase 2, residues 49-262 (from UniProt Q9Z1Y9 49-262) (domain or fragment)", "values": [
      {"measurement": "stoichiometry N", "setting": "[6]", "value": 2}
    ]}
  ]
}
